The assay has as its target T1, Rat PTH (1-84) (rat).
T1 sequence (peptide): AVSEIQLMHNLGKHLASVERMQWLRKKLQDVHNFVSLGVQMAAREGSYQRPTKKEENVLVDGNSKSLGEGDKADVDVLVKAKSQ
Put plainly: ELISA on coated peptide; B cell supernatant. For orientation: ELISA stands for enzyme-linked immunosorbent assay.

B1: anti-PTH mAb 168 (antibody, human IgG2, V domains shown)
VH: EVQLVQSGAEVKKPGESLKISCKGSRYIFTNYWIGWVRQMPGKGLEWMGIIYPGDSDTRYSPSFQGQVTISADMSISTAYLQWSSLKASDTAMYYCARQGDYVWGSFDSWGQGTLVTVSS
VL: DIVMTQTPLSLSVTPGQPASISCKSSQSLLDSDGKTYLYWYLQKPGQPPQLLIYEVSNRFSGVPDRFSGSGSGTDFTLKISRVEAEDVGVYYCMQSIQLWTFGQGTKVEIK
B1 displayed an OD of 0.19 OD450.

For the origin of these results see patent US20060062783A1.
